The text below walks through data of paper doi:10.1101/2025.10.22.683608.

To fix the notation:
T1: ADAR1-Zα (UniProt P55265 134-198)
T1 sequence: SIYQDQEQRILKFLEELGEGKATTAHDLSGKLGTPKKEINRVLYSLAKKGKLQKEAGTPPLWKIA

T2: ZBP1-Zα (UniProt Q9H171 8-70)
T2 sequence: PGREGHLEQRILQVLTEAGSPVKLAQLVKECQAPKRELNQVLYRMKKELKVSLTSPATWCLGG

B1: A10 (ssDNA)
DNA: TTCAGCACTCCACGCATAGCACACGACCGAACTCGCCAACCCTGTCGTCCCGCCCGCCTATGCGTGCTACCGTGAA
B2: A16 (ssDNA)
DNA: TTCAGCACTCCACGCATAGCACACCGCCCCCCTCTACTCGGCACACTCGCCCGCCCCTATGCGTGCTACCGTGAA
B3: A13 (ssDNA)
DNA: TTCAGCACTCCACGCATAGCCCGGCCGACGGAACAATCCGTGTTCACTCGTCGCACCCTATGCGTGCTACCGTGAA
B4: A5 (ssDNA)
DNA: TTCAGCACTCCACGCATAGCCCGCCCCCCGCTACTCCCCTCCTGAGTTGCCGTCGCCCTATGCGTGCTACCGTGAA
B5: A15 (ssDNA)
DNA: TTCAGCACTCCACGCATAGCCCGGCGTGAAGACCCGTGTGCTTTCAGGTCGCCCGCCCTATGCGTGCTACCGTGAA
B6: A4 (ssDNA)
DNA: TTCAGCACTCCACGCATAGCACGCCCGCCACCCCCTCTCCTGGCCATCCGCGCACACCTATGCGTGCTACCGTGAA
B7: A1 (ssDNA)
DNA: TTCAGCACTCCACGCATAGCCGGACGCGCCCCTCTTCCTTGTGTGCTCTCGCCCGCCCTATGCGTGCTACCGTGAA
B8: A9 (ssDNA)
DNA: TTCAGCACTCCACGCATAGCCGACCACCCCCCCGACCCGGTGTCACTCCCCGCGCCCCTATGCGTGCTACCGTGAA
B9: A8 (ssDNA)
DNA: TTCAGCACTCCACGCATAGCCCGCCACCACCAATCCTCACACTAGTCCGGCCCGGTCCTATGCGTGCTACCGTGAA
B10: A11 (ssDNA)
DNA: TTCAGCACTCCACGCATAGCCCGGTGCCGACCGAACCACCGTTGCCCTCCGCATGCCCTATGCGTGCTACCGTGAA
B11: A2 (ssDNA)
DNA: TTCAGCACTCCACGCATAGCCGGCCAGCCAAGTCCCCGCTCCTCACGGCCCCCCGCCCTATGCGTGCTACCGTGAA
B12: A6 (ssDNA)
DNA: TTCAGCACTCCACGCATAGCCCGCACCCAGCCGCGACTGCCCCCTGGTTCGGCCCGCCTATGCGTGCTACCGTGAA
B13: A3 (ssDNA)
DNA: TTCAGCACTCCACGCATAGCCGACCCGCGCCGCATTCACTGCCTACTGCCCGCCGCCCTATGCGTGCTACCGTGAA
B14: A7 (ssDNA)
DNA: TTCAGCACTCCACGCATAGCGACGGGCCAACACCCCAGGTTCGCGTCCCCGCCTGCCCTATGCGTGCTACCGTGAA
B15: A12 (ssDNA)
DNA: TTCAGCACTCCACGCATAGCACACGCGCGAAGACCCCCACCGATCCGGCCGCTCGTCCTATGCGTGCTACCGTGAA
B16: A14 (ssDNA)
DNA: TTCAGCACTCCACGCATAGCACGCCGCCGAAGCAAACCCACGTCCTCGCCCACGGCCCTATGCGTGCTACCGTGAA

As usually defined, the Kd is the concentration at which binding is half-saturated. A lower Kd goes with higher affinity.

One data set has as its target T1, ADAR1-Zα. In words: SPR. (In general: In SPR one partner is held on a chip, and binding of the other changes the refractive index at the surface.)
Molecule B1 yielded a Kd of 99.2 ± 25.3 nM.

For the molecule B2, the Kd stood at 103 ± 11.9 nM. The molecule B3 came in with a Kd of 29.5 ± 7.6 nM. As to B4, the equilibrium dissociation constant (Kd) was 2 ± 0.3 nM. Regarding B5, binding was put at a Kd of 103 ± 17 nM.

B6 came in with a Kd of 2.1 ± 0.4 nM. Take B7: the Kd came out at 31.7 ± 5 nM. The molecule B8 registered a Kd of 26.5 ± 5.5 nM. B9 had a Kd of 99.8 ± 24.6 nM. On the same count and under the same terms, the value for B10 was 104 ± 10 nM. Regarding B11, the Kd was found to be 25.7 ± 6.2 nM. The molecule B12 displayed a Kd of 20.2 ± 2.2 nM. On to B13, for which the equilibrium dissociation constant (Kd) is 16.1 ± 3.7 nM. For the molecule B14, binding was put at a Kd of 27.7 ± 3.1 nM. On to B15, for which the dissociation constant Kd amounted to 104 ± 29.2 nM. Turning to B16, the affinity, expressed as Kd, was 96.7 ± 11.4 nM.

In a further data set the target is T1, ADAR1-Zα. In words: SPR. This is another data set of the same source.
In turn, B6 gave a Kd of 1.8 nM.

The target in another data set is T2, ZBP1-Zα. The data set can be described thus: SPR.
B6 had a Kd of 255 nM.
